Experimental data reported in ChEMBL document CHEMBL1158843, “Development of a radiochemical cyclooxygenase-1 and -2 in vitro assay for identification of natural products as inhibitors of prostaglandin biosynthesis” (J Nat Prod, 1998).

B1: Prostaglandin G/H synthase 1 (Bos taurus), O62664 (protein)
chain: MSRQGISLRFPLLLLLLSPSPVLPADPGAPAPVNPCCYYPCQHQGICVRFGLDRYQCDCTRTGYYGPNCTIPEIWTWLRTTLRPSPSFVHFLLTHGRWLWDFVNATFIRDKLMRLVLTVRSNLIPSPPTYNVAHDYISWESFSNVSYYTRILPSVPRDCPTPMGTKGKKQLPDAEFLSRRFLLRRKFIPDPQGTNLMFAFFAQHFTHQFFKTSGKMGPGFTKALGHGVDLGHIYGDNLERQYQLRLFKDGKLKYQMLNGEVYPPSVEEAPVLMHYPRGIPPQSQMAVGQEVFGLLPGLMVYATIWLREHNRVCDLLKAEHPTWGDEQLFQTARLILIGETIKIVIEEYVQQLSGYFLQLKFDPELLFGAQFQYRNRIAMEFNQLYHWHPLMPDSFRVGPQDYSYEQFLFNTSMLVDYGVEALVDAFSRQPAGRIGGGRNIDHHILHVAVDVIKESRELRLQPFNEYRKRFGMKPYTSFQELTGEKEMAAELEELYGDIDALEFYPGLLLEKCHPNSIFGESMIEMGAPFSLKGLLGNPICSPEYWKASTFGGDVGFNLVKTATLKKLVCLNTKTCPYVSFHVPDPHREDRPGVERPPTEL
B2: Prostaglandin G/H synthase 2 (Ovis aries), P79208 (protein)
chain: MLARALLLCAAVVCGAANPCCSHPCQNRGVCMSVGFDQYKCDCTRTGFYGENCTTPEFLTRIKLLLKPTPDTVHYILTHFKGVWNIVNKISFLRNMIMRYVLTSRSHLIESPPTYNVHYSYKSWEAFSNLSYYTRALPPVPDDCPTPMGVKGRKELPDSKEVVKKVLLRRKFIPDPQGTNLMFAFFAQHFTHQFFKTDIERGPAFTKGKNHGVDLSHVYGESLERQHNRRLFKDGKMKYQMINGEMYPPTVKDTQVEMIYPPHIPEHLKFAVGQEVFGLVPGLMMYATIWLREHNRVCDVLKQEHPEWGDEQLFQTSRLILIGETIKIVIEDYVQHLSGYHFKLKFDPELLFNQQFQYQNRIAAEFNTLYHWHPLLPDVFQIDGQEYNYQQFIYNNSVLLEHGVTQFVESFTRQIAGRVAGRRNLPAAVEKVSKASLDQSREMKYQSFNEYRKRFLLKPYESFEELTGEKEMAAELEALYGDIDAMELYPALLVEKPAPDAIFGETMVEAGAPFSLKGLMGNPICSPEYWKPSTFGGEVGFKIINTASIQSLICSNVKGCPFTSFSVQDAHLTKTVTINASSSHSGLDDINPTVLLKERSTEL

How the values were obtained:
[1] = substrate: CCCCC/C=C\C/C=C\C/C=C\C/C=C\CCCC(=O)O; assay: Activity of bovine seminal microsomal COX1; conditions: Bos taurus
[2] = substrate: CCCCC/C=C\C/C=C\C/C=C\C/C=C\CCCC(=O)O; assay: Activity of sheep placental cotyledons COX2; conditions: Ovis aries

Row | Protein | Km [1] [µM] | Km [2] [µM]
1 | B1 | 8.8 | 
2 | B2 |  | 9.7
